The numbers were not newly measured in article PMC12250766, which cites them from elsewhere.

In series [1] the target is PSGL-1 (Homo sapiens) (UniProt Q14242).
Series [2] deals with PSGL-1 model glycosulfopeptide (Homo sapiens) (UniProt Q14242).
The target is the same in series [3]. This is another data set of the same source.
Series [4] addresses PSGL-1 model glycopeptide (Homo sapiens) (UniProt Q14242).
Series [5] has as its target PSGL-1 (Homo sapiens) (UniProt Q14242). This is another data set of the same source.

Read-outs that look alike come from different tables or passages of the source.

As usually defined, the Kd is the concentration at which binding is half-saturated. As to L-selectin (from UniProt P14151), in the series with PSGL-1 (Homo sapiens) [1], the Kd was 5 µM.

P-selectin (from UniProt P16109): the Kd in series [2] was 6 µM; in series [3], 0.65 µM; in series [4], 25 µM.

For the substance E-selectin (from UniProt P16581), in the series with PSGL-1 (Homo sapiens) [5], the Kd is 15 µM.
